Measurements from patent US9051358B2, “Nonnatural collagen-like protein and use thereof” (ZHEJIANG UNIVERSITY, priority 2009, dated 2015).

What was measured:
[1] = Half-life of GLK/IFNα fusion proteins in SD rats; type: in vivo
Text: The structure characteristics and half-life in SD rats of the different GLK/IFNαs, which was constructed by fusion to different GLK, was compared in Table 5.

2′,5′-OAS = test: Serum 2′,5′-OAS activity in rhesus monkeys after subcutaneous administration; type: in vivo
Procedure: Rhesus monkeys.(n=15; including female and male; age range: 3-4; weight range: 4.2-4.8 kg), were purchased from Animal Center of Chinese Academy of Military Medicine and divided into five groups (3 in each group). Samples were diluted with PBS, wherein rGLK1164/IFNα was diluted respectively to 0.36, 1.0 and 3.6 pmol/kg, IFNα (positive control) was diluted to 0.36 pmol/kg, and rGLK1164 (blank control) was diluted to 0.36 pmol/kg. The diluted samples were administered to rhesus monkeys subcutaneously and the serum samples were collected at 0, 1, 2, 4, 8, 10, 14 […] after injection respectively. The activity of 2′, 5′-OAS in serum was measured with 2′,5′-OAS radioimmunoassay kit (Eiken Chemical Co., Tokyo, Japan).

erythropoiesis = test: Erythropoiesis in normal mice, hemoglobin (Hb) content; type: in vivo, BALB/c mice; conditions: weekly subcutaneous administration
Procedure: rEPO/GLK1074 fusion protein was compared with standard rEPO (EPOGEN®, AMGEN Inc.) in erythropoiesis activity in mice. BALB/c mice (male, 6-8 weeks old, 18˜20 g/only) from the Shanghai Institute of animal testing center were used in the experiments. Grouping, injection, and tail vein blood samples collecting were performed according to the following table. Hemoglobin (Hb) content was determined by colorimetric.

In the case of “GLK302/IFNα: IFNα fused with GLK302, a repeated sequence of GGSGGS (SEQ ID NO: 16)”, the “Half-life” value [1] is reported as 14.4 h.

With IFNα [reference compound] the detectability in vivo (2′,5′-OAS) was “could hardly be detected 6 days later”.

For “rEPO: standard rEPO (EPOGEN®, AMGEN Inc.) [reference compound]”, the “erythropoiesis activity, Hb levels” value (erythropoiesis) was “significantly lower than rEPO/GLK1074”.
